# Assay results taken from patent publication JP2022028645A (dated 2022).
# Columns and labels:
# [1] = biological target: T1, Human TYRP1 extracellular domain (ECD), monomeric fusion to human Fc domain with knob-into-hole and PG LALA … (human, UniProt P01857 104-328 = IgG part); assay: SPR (Biacore T200), TYRP1 ECD-Fc captured by anti-PGLALA antibody, Fab 3-fold dilution series as analyte, 1:1 Langmuir fit
# T1 construct: also called ヒトTYRP1
# [2] = biological target: T2, Mouse TYRP1 extracellular domain (ECD), monomeric fusion to human Fc domain with knob-into-hole and PG LALA … (mouse, UniProt P01857 104-328 = IgG part); assay: as above
# T2 construct: also called マウスTYRP1
# [3] = biological target: T3, Cynomolgus TYRP1 extracellular domain (ECD), monomeric fusion to human Fc domain with knob-into-hole and PG … (cynomolgus monkey, UniProt P01857 104-328 = IgG part); assay: as above
# T3 construct: also called カニクイザルTYRP1
# [4] = biological target: T4, Human EGFRvIII expressed on cells (CHO-EGFRvIII, DK-MG, U87MG-EGFRvIII) (human, UniProt P00533 298-1210); assay: flow cytometry on CHO-EGFRvIII and EGFRvIII-positive DK-MG cells
# T4 construct: also called EGFRvIII; huEGFRvIII
# [5] = biological target: T4, Human EGFRvIII expressed on cells …; assay: SPR and flow cytometry on U87MG-EGFRvIII and MKN-45 cells, compared with the parental binder
# [6] = biological target: T4, Human EGFRvIII expressed on cells …; assay: flow cytometry on CHO-EGFRvIII cells, TCB against the corresponding IgG
# [7] = biological target: T5, Recombinant cynomolgus CD3 antigen: heterodimer of cynomolgus CD3 delta and CD3 epsilon ectodomains fused to … (cynomolgus monkey); assay: SPR (Biacore T200), TCB captured at 20 nM by anti-PGLALA antibody, CD3 antigen as analyte, 1:1 Langmuir fit
# T5 construct: also called カニクイザルCD3
# [8] = biological target: T6, Recombinant human CD3 antigen: heterodimer of CD3 delta and CD3 epsilon ectodomains fused to human Fc domain … (human); assay: as above
# T6 construct: also called 組換えCD3; ヒトCD3
# [9] = biological target: T7, EGFRvIII-ECD avi his (extracellular domain of human EGFRvIII fused to C-terminal Avi-tag and His-tag) (human); assay: SPR (Biacore T200), TCB (5 nM) captured by anti-Fc antibody, EGFRvIII-ECD avi his 3-fold dilution series as analyte, 1:1 Langmuir fit
# T7 construct: also called 組み換えEGFRvIII; EGFRvIII抗原
# [10] = biological target: T5, Recombinant cynomolgus CD3 antigen: …; assay: SPR (Biacore T200), TCB captured by anti-PGLALA antibody, CD3 antigen 12.35-3000 nM as analyte, 1:1 Langmuir fit
# [11] = biological target: T6, Recombinant human CD3 antigen: …; assay: as above
# [12] = biological target: T6, Recombinant human CD3 antigen: …; assay: SPR (Biacore T200), antibody captured by anti-Fab, CD3 antigen 10 ug/ml, relative active concentration after 14 days of temperature stress
binder,measurement,setting,value
"TYRP1 Fab断片 (Fab fragment of the humanized TA99-derived TYRP1 binder, made by plasmin digestion of the corresponding antibody) (Fab, V domains shown, also called TYRP1 Fab) VH: QVQLVQSGAEVKKPGASVKVSCKASGFNIKDYFLHWVRQAPGQGLEWMGWINPDNGNTVYAQKFQGRVTMTADTSTSTVYMELSSLRSEDTAVYYCTRRDYTYEKAALDYWGQGTLVTVSS VL: DIQMTQSPSSLSASVGDRVTITCRASGNIYNYLAWYQQKPGKVPKLLIYDAKTLADGVPSRFSGSGSGTDFTLTISSLQPEDVATYYCQHFWSLPFTFGQGTKLEIK",Kd,[1],0.13 nM
same,Kd,[2],0.53 nM
same,Kd,[3],0.18 nM
"EGFRvIII IgG PGLALA P056.021 (antibody, human IgG1, V domains shown, Human IgG1 with P329G L234A L235A; also called P056.021) VH: EVQLVQSGAEVKKPGESLKISCKGSGYSFDSYWIAWVRQMPGKGLEWMGVIHPYDSDTRYSPSFQGQVTISADKSISTAYLQWSSLKASDTAMYYCARVSRSSYAFDYWGQGTLVTVSS VL: not shown",binding result,[4],binds
"EGFRvIII IgG PGLALA P063.056 (affinity-matured EGFRvIII binder) (antibody, human IgG1, V domains shown, Human IgG1 PGLALA; also called P063.056) VH: EVQLVQSGAEVKKPGESLKISCKGSGYSFDSYWIAWVRQMPGKGLEWMGVIHPYDSDTRYSPSFQGQVTISADKSISTAYLQWSSLKASDTAMYYCARVSRSSYAFDYWGQGTLVTVSS VL: not shown",binding result,[5],binds
"EGFRvIII TCB P056.021 (with CD3orig, 2+1 IgG CrossFab inverted) (bispecific antibody, V domains shown, only the variable domains can be tied to it; also called P056.021 EGFRvIII TCB; parental EGFRvIII TCB) VH 1: EVQLVQSGAEVKKPGESLKISCKGSGYSFDSYWIAWVRQMPGKGLEWMGVIHPYDSDTRYSPSFQGQVTISADKSISTAYLQWSSLKASDTAMYYCARVSRSSYAFDYWGQGTLVTVSS VL 1: not shown VH 2: not shown VL 2: QAVVTQEPSLTVSPGGTVTLTCGSSTGAVTTSNYANWVQEKPGQAFRGLIGGTNKRAPGTPARFSGSLLGGKAALTLSGAQPEDEAEYYCALWYSNLWVFGGGTKLTVL",binding result,[6],binds
"EGFRvIII TCB CD3 opt (EGFRvIII binder P063.056 and optimized CD3 binder, 2+1 IgG CrossFab inverted) (bispecific antibody, Chain roles inferred as for TYRP1 TCB; also called EGFRvIII TCB; P063.056 EGFRvIII TCB with CD3opt) heavy 1: not shown heavy 2: EVQLVQSGAEVKKPGESLKISCKGSGYSFDSYWIAWVRQMPGKGLEWMGVIHPYDSDTRYSPSFQGQVTISADKSISTAYLQWSSLKASDTAMYYCARVSRSSYAFDYWGQGTLVTVSSASTKGPSVFPLAPSSKSTSGGTAALGCLVEDYFPEPVTVSWNSGALTSGVHTFPAVLQSSGLYSLSSVVTVPSSSLGTQTYICNVNHKPSNTKVDEKVEPKSCDKTHTCPPCPAPEAAGGPSVFLFPPKPKDTLMISRTPEVTCVVVDVSHEDPEVKFNWYVDGVEVHNAKTKPREEQYNSTYRVVSVLTVLHQDWLNGKEYKCKVSNKALGAPIEKTISKAKGQPREPQVCTLPPSRDELTKNQVSLSCAVKGFYPSDIAVEWESNGQPENNYKTTPPVLDSDGSFFLVSKLTVDKSRWQQGNVFSCSVMHEALHNHYTQKSLSLSP light 1: not shown light 2: EVQLLESGGGLVQPGGSLRLSCAASGFQFSSYAMNWVRQAPGKGLEWVSRIRSKYNNYATYYADSVKGRFTISRDDSKNTLYLQMNSLRAEDTAVYYCVRHTTFPSSYVSYYGYWGQGTLVTVSSASVAAPSVFIFPPSDEQLKSGTASVVCLLNNFYPREAKVQWKVDNALQSGNSQESVTEQDSKDSTYSLSSTLTLSKADYEKHKVYACEVTHQGLSSPVTKSFNRGEC",Kd,[7],20 nM
same,Kd,[8],30 nM
same,Kd,[9],6 nM
"TYRP1 TCB CD3 opt (T cell bispecific antibody to CD3 and TYRP1 with optimized CD3 binder, 2+1 IgG CrossFab inverted, charge modifications, PGLALA) (bispecific antibody, also called TYRP1 TCB; TYRP-1 TCB) heavy 1: not shown heavy 2: QVQLVQSGAEVKKPGASVKVSCKASGFNIKDYFLHWVRQAPGQGLEWMGWINPDNGNTVYAQKFQGRVTMTADTSTSTVYMELSSLRSEDTAVYYCTRRDYTYEKAALDYWGQGTLVTVSSASTKGPSVFPLAPSSKSTSGGTAALGCLVEDYFPEPVTVSWNSGALTSGVHTFPAVLQSSGLYSLSSVVTVPSSSLGTQTYICNVNHKPSNTKVDEKVEPKSCDKTHTCPPCPAPEAAGGPSVFLFPPKPKDTLMISRTPEVTCVVVDVSHEDPEVKFNWYVDGVEVHNAKTKPREEQYNSTYRVVSVLTVLHQDWLNGKEYKCKVSNKALGAPIEKTISKAKGQPREPQVCTLPPSRDELTKNQVSLSCAVKGFYPSDIAVEWESNGQPENNYKTTPPVLDSDGSFFLVSKLTVDKSRWQQGNVFSCSVMHEALHNHYTQKSLSLSP light 1: DIQMTQSPSSLSASVGDRVTITCRASGNIYNYLAWYQQKPGKVPKLLIYDAKTLADGVPSRFSGSGSGTDFTLTISSLQPEDVATYYCQHFWSLPFTFGQGTKLEIKRTVAAPSVFIFPPSDRKLKSGTASVVCLLNNFYPREAKVQWKVDNALQSGNSQESVTEQDSKDSTYSLSSTLTLSKADYEKHKVYACEVTHQGLSSPVTKSFNRGEC light 2: EVQLLESGGGLVQPGGSLRLSCAASGFQFSSYAMNWVRQAPGKGLEWVSRIRSKYNNYATYYADSVKGRFTISRDDSKNTLYLQMNSLRAEDTAVYYCVRHTTFPSSYVSYYGYWGQGTLVTVSSASVAAPSVFIFPPSDEQLKSGTASVVCLLNNFYPREAKVQWKVDNALQSGNSQESVTEQDSKDSTYSLSSTLTLSKADYEKHKVYACEVTHQGLSSPVTKSFNRGEC",Kd,[10],20 nM
same,Kd,[11],50 nM
"EGFRvIII TCB CD3 orig (EGFRvIII binder P063.056 and original CD3 binder, 2+1 IgG CrossFab inverted) (bispecific antibody, chain roles inferred; also called P063.056 EGFRvIII TCB with CD3orig) heavy 1: not shown heavy 2: EVQLVQSGAEVKKPGESLKISCKGSGYSFDSYWIAWVRQMPGKGLEWMGVIHPYDSDTRYSPSFQGQVTISADKSISTAYLQWSSLKASDTAMYYCARVSRSSYAFDYWGQGTLVTVSSASTKGPSVFPLAPSSKSTSGGTAALGCLVEDYFPEPVTVSWNSGALTSGVHTFPAVLQSSGLYSLSSVVTVPSSSLGTQTYICNVNHKPSNTKVDEKVEPKSCDKTHTCPPCPAPEAAGGPSVFLFPPKPKDTLMISRTPEVTCVVVDVSHEDPEVKFNWYVDGVEVHNAKTKPREEQYNSTYRVVSVLTVLHQDWLNGKEYKCKVSNKALGAPIEKTISKAKGQPREPQVCTLPPSRDELTKNQVSLSCAVKGFYPSDIAVEWESNGQPENNYKTTPPVLDSDGSFFLVSKLTVDKSRWQQGNVFSCSVMHEALHNHYTQKSLSLSP light 1: not shown light 2: EVQLLESGGGLVQPGGSLRLSCAASGFTFSTYAMNWVRQAPGKGLEWVSRIRSKYNNYATYYADSVKGRFTISRDDSKNTLYLQMNSLRAEDTAVYYCVRHGNFGNSYVSWFAYWGQGTLVTVSSASVAAPSVFIFPPSDEQLKSGTASVVCLLNNFYPREAKVQWKVDNALQSGNSQESVTEQDSKDSTYSLSSTLTLSKADYEKHKVYACEVTHQGLSSPVTKSFNRGEC",Kd,[8],40 nM
same,Kd,[9],6 nM
"TYRP1 TCB CD3 orig (T cell bispecific antibody to CD3 and TYRP1 with original CD3 binder, 2+1 IgG CrossFab inverted) (bispecific antibody, chain roles inferred as for the CD3opt molecule) heavy 1: not shown heavy 2: QVQLVQSGAEVKKPGASVKVSCKASGFNIKDYFLHWVRQAPGQGLEWMGWINPDNGNTVYAQKFQGRVTMTADTSTSTVYMELSSLRSEDTAVYYCTRRDYTYEKAALDYWGQGTLVTVSSASTKGPSVFPLAPSSKSTSGGTAALGCLVEDYFPEPVTVSWNSGALTSGVHTFPAVLQSSGLYSLSSVVTVPSSSLGTQTYICNVNHKPSNTKVDEKVEPKSCDKTHTCPPCPAPEAAGGPSVFLFPPKPKDTLMISRTPEVTCVVVDVSHEDPEVKFNWYVDGVEVHNAKTKPREEQYNSTYRVVSVLTVLHQDWLNGKEYKCKVSNKALGAPIEKTISKAKGQPREPQVCTLPPSRDELTKNQVSLSCAVKGFYPSDIAVEWESNGQPENNYKTTPPVLDSDGSFFLVSKLTVDKSRWQQGNVFSCSVMHEALHNHYTQKSLSLSP light 1: DIQMTQSPSSLSASVGDRVTITCRASGNIYNYLAWYQQKPGKVPKLLIYDAKTLADGVPSRFSGSGSGTDFTLTISSLQPEDVATYYCQHFWSLPFTFGQGTKLEIKRTVAAPSVFIFPPSDRKLKSGTASVVCLLNNFYPREAKVQWKVDNALQSGNSQESVTEQDSKDSTYSLSSTLTLSKADYEKHKVYACEVTHQGLSSPVTKSFNRGEC light 2: EVQLLESGGGLVQPGGSLRLSCAASGFTFSTYAMNWVRQAPGKGLEWVSRIRSKYNNYATYYADSVKGRFTISRDDSKNTLYLQMNSLRAEDTAVYYCVRHGNFGNSYVSWFAYWGQGTLVTVSSASVAAPSVFIFPPSDEQLKSGTASVVCLLNNFYPREAKVQWKVDNALQSGNSQESVTEQDSKDSTYSLSSTLTLSKADYEKHKVYACEVTHQGLSSPVTKSFNRGEC",Kd,[11],50 nM
"CD3 opt ヒトIgG1 PGLALA (optimized CD3 binder, human IgG1 with P329G L234A L235A) (antibody, V domains shown, also called CD3opt; CD3opt IgG PGLALA) VH: EVQLLESGGGLVQPGGSLRLSCAASGFQFSSYAMNWVRQAPGKGLEWVSRIRSKYNNYATYYADSVKGRFTISRDDSKNTLYLQMNSLRAEDTAVYYCVRHTTFPSSYVSYYGYWGQGTLVTVSS VL: QAVVTQEPSLTVSPGGTVTLTCGSSTGAVTTSNYANWVQEKPGQAFRGLIGGTNKRAPGTPARFSGSLLGGKAALTLSGAQPEDEAEYYCALWYSNLWVFGGGTKLTVLR",binding result,[12],binds
